In patent publication US20150111836A1, “CELLULAR APOBEC3 PROTEINS AND MODULATORS THEREOF FOR REGULATING DNA REPAIR PROCESSES AND TREATING PROLIFERATIVE DISEASES” (priority 2012, published 2015):
Substitutions are numbered along the chain they refer to. Names may count otherwise.

B1: A3G W285A: A3G W285A catalytic mutant, deaminase-dead control that binds ssDNA (protein)
chain: MKPHFRNTVERMYRDTFSYNFYNRPILSRRNTVWLCYEVKTKGPSRPPLDAKIFRGQVYSELKYHPEMRFFHWFSKWRKLHRDQEYEVTWYISWSPCTKCTRDMATFLAEDPKVTLTIFVARLYYFWDPDYQEALRSLCQKRDGPRATMKIMNYDEFQHCWSKFVYSQRELFEPWNNLPKYYILLHIMLGEILRHSMDPPTFTFNFNNEPWVRGRHETYLCYEVERMHNDTWVLLNQRRGFLCNQAPHKHGFLEGRHAELCFLDVIPFWKLDLDQDYRVTCFTSASPCFSCAQEMAKFISKNKHVSLCIFTARIYDDQGRCQEGLRTLAEAGAKISIMTYSEFKHCWDTFVDHQGCPFQPWDGLDEHSQDLSGRLRAILQNQEN
modifications: A3G W285A mutant
B2: A3G: wild-type human APOBEC3G, purified with C-terminal His6 tag from 293T cells or expressed in cells (protein, listed as Homo sapiens)
chain: B1 chain with A285W
modifications: C-terminal His6 tag
notes: wild-type human APOBEC3G, purified with C-terminal His6 tag from 293T cells or expressed in cells
B3: A3G E259Q: A3G E259Q catalytic mutant stably expressed in SupT11 cells (protein)
chain: B1 chain with E259Q, A285W
modifications: A3G E259Q mutant
notes: A3G E259Q catalytic mutant stably expressed in SupT11 cells

Legend:
[1] = tested on: SC or SU oligonucleotides (80 nt); assay: Electrophoretic mobility shift assay (EMSA) of ssDNA binding; settings: biotinylated SC oligonucleotides (80 nt), FIG. 3B
Description: SC (10 pmol) was 3′ labeled with dATP-biotin using 10 u terminal deoxynucleotidyl transferase (NEB) in NEBuffer 4 (NEB) supplemented with 0.25 mM CoCl2 and 10 μM dATP-biotin (Invitrogen). Labeled oligos (200 fmol) were incubated with A3G or RPA for 8 or 30 mM, respectively, at room temperature, in EMSA buffer: 50 mM Tris (pH 7.0), 50 mM NaCl, 0.1 mg/mL BSA and 10% glycerol, in 10 μL, reaction volume. Samples were resolved by 6% native PAGE, transferred to a Hybond N nylon membrane (GE Healthcare) using a semi-dry transfer apparatus (Biorad) and UV-crosslinked (302 nm) for 15 min. Following blocking with Casein blocking buffer (Sigma), the membrane was treated with horseradish peroxidase conjugated sterptavidine (Jackson) for 20 mM at RT, washed 6 times with TBS (pH 7.4) and visualized by enhanced chemiluminescence. […] Following incubation with A3G, samples were resolved by PAGE, stained with SYBR Gold (Molecular Probes) and visualized by UV light (302 nm).

[2] = tested on: ss-deoxyoligonucleotide substrate; assay: Cytidine deaminase activity of purified wild-type and mutant A3G; assay type: biochemical
Description: Deaminase activity of purified enzyme and virion-associated A3G protein was examined as previously described. Briefly, A3G deamination reactions were performed in a total volume of 10 μl in 25 mM Tris, pH 7.0, and 0.01-1 fmol single-stranded (ss) deoxyoligonucleotide substrate at 37° C. The reaction was terminated by heating to 95° C. for 5 min. One μl of the reaction mixture was used for PCR amplification performed in 20 μl buffer S, using the following program: 1 cycle at 95° C. for 3 min, followed by 30 cycles of annealing at 61° C. for 30 s and denaturing at 94° C. for 30 s. Aliquots of the PCR products (10 μl) were incubated with Eco147I restriction enzyme for 1 h at 37° C. Completion of the restriction reaction was verified by using positive-control substrate containing CCU instead of CCC. Restriction-reaction products were loaded onto 14% gels and separated by PAGE. Gels were stained with SYBR gold nucleic acid stain diluted 1:10,000 in 0.5× Tris-Borate-EDTA buffer (TBE, pH 7.8), visualized by UV light (312 nm), captured by an Olympus C-5050 charge-coupled device (CCD) camera and analyzed by optical density (OD) scan using the TINA2.0 densitometry software. Assessment of A3G entrapped in virions was carried out with concentrated viruses stocks of 3-5 μg of p24/μl) suspended in PBS containing Triton X-100 at final concentration of 0.1% (vv) and 50 μg/ml RNase A (Sigma-Aldrich). […]

[3] = tested on: primer with 3′-terminal CC; assay: Terminal cytidine deamination, DNA polymerase primer extension / PCR assay; assay type: biochemical; settings: FIG. 4A
Description: A3G deaminates the extreme base of the ssDNA 3′-terminus and tethers two ssDNA termini To determine whether A3G interacts with the terminal base of the ssDNA, the inventors tested terminal cytidine deamination by A3G. A primer with 3′-terminal CC was incubated with A3G and was then used for extension and PCR amplification of a target sequence. It was previously shown that A3G W285 residue contributes to formation of a hydrophobic cavity and is essential for catalytic activity. […] A cleavage resistant polynucleotide deaminase substrate, comprising an internal cytidine, was incubated with either A3G or A3G W285A. Upon deamination, the internal uridine-containing polynucleotide was susceptible to restriction, and yielded a fragment which was apparent in the PAGE analysis of the cleaved deamination products shown in FIG. 3C (bottom).

[4] = tested on: HRind cells (U2OS-DR-GFP); assay: DR-GFP HR reporter assay of ISceI-induced DSB repair; assay type: cell-based; settings: expression plasmid transfected, 52 hours after ISceI induction, FIG. 11B
Description: Repair of a unique ISceI-induced DSB by HR was assessed in U2OS-DR-GFP cells stably transfected with the Cherry-Sce-GR plasmid (HRind cells) as described in Shahar OD et al.. Cherry-ZScel-GR rapidly translocates from the cytoplasm into the nucleus on binding to triamcinolone acetonide (TA). The DR-GFP cassette enables reconstitution of GFP after ZScel-dependent HR between 2 mutated GFP sequences. Transfection of A3G or A3GW285A expression plasmids was performed in 24-well plates with GenJet (Signa-gen). Forty hours after transfection, IScel-directed DSB was induced with 10^7M TA (Sigma-Aldrich). GFP^+ cells were sorted 52 hours later by flow cytometry using FACScan as described in Shahar OD [10].

[5] = tested on: DNA1 and DNA2 ss-oligonucleotides; assay: Terminal ssDNA tethering by DNA polymerase terminal extension; assay type: biochemical; settings: DNA1+2, FIG. 4D
Description: DNA1 and DNA2 were annealed to an equimolar amount of a short oligonucleotide (30 nt) complementary to the 5′-termius by heating to 95° C. followed by slow cooling to RT. DNA-polymerase extension reactions were performed in a total volume of 7 μl and included 100 fmol annealed oligonucleotides, 50 μM dNTPs (dCTP, dGTP, dTTP and dATP-biotin (Invitrogen)), NEBuffer 1 (final dilution ×0.35 (NEB)), 1 mg/ml BSA, 100 fmol A3G or A3G W285A, and 5 u Klenow Fragment (3′→5′ exo(−), NEB). Reactions were incubated for 30 min at 37° C. and terminated by heating to 95° C. for 5 min and adding 5 μl formamide. Samples were then heated to 80° C. prior to loading on pre-heated 10% acrylamide gel containing 6M urea. Gels were washed in Tris-Boric acid-EDTA buffer (ph 8.3) for 15 min and transferred to nylon membranes as described in the EMSA protocol below.
To further investigate A3G-mediated terminal ssDNA tethering, the inventors developed a DNA polymerase extension assay depicted in FIG. 4C. The 5′-termini of two ss-oligonucleotides (DNA1 and DNA2, 80 nt) were annealed to complementary oligonucleotides (30 nt), leaving 3′ ssDNA overhangs. […] As expected, no extension products were detected in the presence or absence of wild-type or mutant A3G (not shown). […]

[6] = tested on: SupT11 cells; assay: γ-H2AX foci in SupT11 cells stably expressing A3G variants after IR; assay type: cell-based, human; settings: 24 hours after IR (4 Gy), FIG. 9B
Description: Cells were irradiated by exposure to a ^60Co source producing 1 Gy sec^−1 γ-radiation, or mock-irradiated. Following incubation at 37° C., cells were fixed, attached to glass slides by cytospin, permeabilized with detergent and blocked with 10% normal goat serum. Cells were then incubated with A3G-specific rabbit polyclonal antibody, γ-H2AX-specific monoclonal antibody, or RPA32-specific monoclonal antibody, followed by incubation with goat anti-rabbit Cy-5-conjugated antibody, goat anti-mouse Cy-2-conjugated antibody and DAPI. Slides were mounted and examined by Zeiss LSM 710 confocal microscope. Data were collected sequentially using a ×63 objective with 7-fold averaging at a resolution of […], Z-sections were obtained using an optical slice of less than 1 μm. Data were analyzed with the Zen 2009.
To assess whether A3G cytidine deaminase activity is required for DSB repair, the inventors examined whether IR-Induced 7412AX focus formation occurred differentially in SupTH cells stably expressing A3G, an E259Q catalytic mutant (as denoted by SEQ ID NO. 90) or empty vector (EV).

| Molecule | ssDNA binding properties [1] | catalytic activity (cytidine deamination) ([2]; purified protein, FIG. 3C) | PCR amplification after incubation of the primer [3] | reduction of HR [4] | dC in the oligonucleotide substrate deaminated ([2]; purified recombinant A3G alone, FIG. 14A) | inhibition of the PCR reaction after incubation of the primer [3] | extension efficiency relative to Klenow fragment alone [5] | average DSB load (γ-H2AX focus formation), lower than EV control cells [6] | enhancement of DSB repair [6] |
| --- | --- | --- | --- | --- | --- | --- | --- | --- | --- |
| B1 | retained wild-type ssDNA binding properties | catalytically inactive | normal PCR amplification | 6.2% | – | – | – | – | – |
| B2 | – | – | – | 30.2% | 20% | ~90% | approximately 9 fold | approximately 2 fold | – |
| B3 | – | – | – | – | – | – | – | – | enhanced repair was not observed |
